From patent US20210024620A1

Assays:
[1] = target: Human CD16a (FcγRIIIa residues 17-208 with C-terminal HPC4 tag and valine at position 158) (human) (UniProt P08637); test: Biacore SPR, HPC4-tagged FcγRIIIa-V158 captured by anti-HPC4, pH 7.4
[2] = target: biotinylated human FcRn (human) (UniProt P55899); test: Biacore, biotin-captured hFcRn, pH 6.0
[3] = target: biotinylated human FcRn (human) (UniProt P55899); test: Biacore SPR, pH 7.4, 1000 nM antibody
[4] = target: biotinylated human FcRn (p51 subunit residues 24-297 with C-terminal Avi-tag; beta2-microglobulin residues 21-119) (human) (UniProt P55899); test: Biacore; affinity at pH 6.0 (M^-1) over steady state RU at pH 7.4
Sequence of biotinylated human FcRn (p51 subunit residues 24-297 with C-terminal Avi-tag; beta2-microglobulin residues 21-119) (human) (P55899 24-297 limits assumed, chain 1 of 2): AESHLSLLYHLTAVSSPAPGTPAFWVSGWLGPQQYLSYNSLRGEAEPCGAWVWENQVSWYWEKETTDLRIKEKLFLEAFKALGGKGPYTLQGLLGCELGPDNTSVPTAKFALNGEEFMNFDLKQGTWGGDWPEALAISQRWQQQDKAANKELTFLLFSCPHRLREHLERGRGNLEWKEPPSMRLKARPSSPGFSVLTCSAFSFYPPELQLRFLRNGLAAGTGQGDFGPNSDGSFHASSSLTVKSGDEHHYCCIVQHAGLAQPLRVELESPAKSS
Sequence of biotinylated human FcRn (p51 subunit residues 24-297 with C-terminal Avi-tag; beta2-microglobulin residues 21-119) (human) (P61769 21-119 limits assumed, chain 2 of 2, further chain): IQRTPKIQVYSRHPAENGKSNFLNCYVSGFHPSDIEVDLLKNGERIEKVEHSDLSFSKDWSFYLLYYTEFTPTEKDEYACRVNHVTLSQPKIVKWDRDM

[5] = target: biotinylated human FcRn (p51 subunit residues 24-297 with C-terminal Avi-tag; beta2-microglobulin residues 21-119) (human) (UniProt P55899); test: Biacore; inverse ratio (RU at pH 7.4 over affinity at pH 6.0)
[6] = target: biotinylated human FcRn (human) (UniProt P55899); test: Biacore SPR, pH 7.4
[7] = target: biotinylated human FcRn (p51 subunit residues 24-297 with C-terminal Avi-tag; beta2-microglobulin residues 21-119) (human) (UniProt P55899); test: Biacore SPR, pH 7.4, steady state
[8] = target: biotinylated human FcRn (p51 subunit residues 24-297 with C-terminal Avi-tag; beta2-microglobulin residues 21-119) (human) (UniProt P55899); test: Biacore SPR, pH 6.0
[9] = target: biotinylated human FcRn (human) (UniProt P55899); test: Biacore SPR, pH 6.0
[10] = target: biotinylated human FcRn (human) (UniProt P55899); test: Biacore, pH 7.4, steady state response
[11] = target: biotinylated human FcRn (human) (UniProt P55899); test: Biacore, pH 6.0
[12] = target: biotinylated human FcRn (human) (UniProt P55899); test: Biacore, pH 6.0, apparent KD
[13] = target: FcRn immobilised on the FcRn affinity column (biotinylated cynoFcRn in one experiment, biotinylated hFcRn in another); test: FcRn affinity chromatography, linear pH gradient; species of the immobilised FcRn not given
[14] = target: Human CD16a (FcγRIIIa V158) with C-terminal HPC4 tag (human) (UniProt P08637); test: Biacore, FcγRIIIa V158 captured, steady-state fit, apparent KD
Sequence of Human CD16a (FcγRIIIa V158) with C-terminal HPC4 tag (human) (P08637 17-208 F176V): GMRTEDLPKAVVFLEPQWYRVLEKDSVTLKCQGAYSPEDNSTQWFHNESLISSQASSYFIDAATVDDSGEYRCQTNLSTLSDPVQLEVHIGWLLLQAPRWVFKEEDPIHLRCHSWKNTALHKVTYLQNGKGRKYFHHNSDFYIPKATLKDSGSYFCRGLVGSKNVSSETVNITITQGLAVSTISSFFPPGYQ

rat FcRn (rat) [15] = target: rat FcRn (rat) (UniProt P13599); test: Biacore SPR, pH 6.0
Sequence of rat FcRn (rat) (P13599 23-298 limits assumed, chain 1 of 2): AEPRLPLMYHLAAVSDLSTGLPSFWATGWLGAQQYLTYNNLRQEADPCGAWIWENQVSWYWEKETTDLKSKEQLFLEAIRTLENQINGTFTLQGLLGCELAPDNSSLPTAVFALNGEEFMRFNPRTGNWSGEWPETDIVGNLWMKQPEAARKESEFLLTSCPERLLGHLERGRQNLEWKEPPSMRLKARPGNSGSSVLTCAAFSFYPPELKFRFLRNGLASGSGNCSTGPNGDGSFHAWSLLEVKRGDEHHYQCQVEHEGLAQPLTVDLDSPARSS
Sequence of rat FcRn (rat) (P07151 21-119 limits assumed, chain 2 of 2, further chain): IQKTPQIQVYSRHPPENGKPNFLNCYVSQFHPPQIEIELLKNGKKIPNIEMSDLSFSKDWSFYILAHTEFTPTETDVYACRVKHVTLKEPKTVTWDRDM

rat FcRn (rat) [16] = target: rat FcRn (rat) (UniProt P13599); test: Biacore SPR, pH 6.0; remark: listed apart in the source
rat FcRn (rat) [17] = target: rat FcRn (rat) (UniProt P13599); test: Biacore, pH 7.4, steady state response
rat FcRn (rat) [18] = target: rat FcRn (rat) (UniProt P13599); test: Biacore, pH 6.0, apparent KD
rat FcRn (rat) [19] = target: rat FcRn (rat) (UniProt P13599); test: Biacore SPR, pH 7.4
[20] = target: biotinylated human FcRn (human) (UniProt P55899); test: Biacore SPR, pH 7.4; remark: listed apart in the source
[21] = target: Human CD16a (FcγRIIIa V158) with C-terminal HPC4 tag (human) (UniProt P08637); test: Biacore, FcγRIIIa V158 captured, relative to WT of the same backbone
mouse FcRn (mouse) = mouse FcRn (mouse) (UniProt Q61559); test: Biacore, pH 7.4, steady state response
Sequence of mouse FcRn (mouse) (Q61559 22-297 limits assumed, chain 1 of 2): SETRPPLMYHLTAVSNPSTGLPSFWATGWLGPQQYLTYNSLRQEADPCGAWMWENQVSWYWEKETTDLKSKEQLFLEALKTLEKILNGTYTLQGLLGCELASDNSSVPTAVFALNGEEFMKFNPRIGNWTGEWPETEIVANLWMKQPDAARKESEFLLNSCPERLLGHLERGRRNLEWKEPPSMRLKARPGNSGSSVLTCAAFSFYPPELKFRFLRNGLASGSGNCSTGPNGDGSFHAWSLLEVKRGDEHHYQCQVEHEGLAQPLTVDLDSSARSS
Sequence of mouse FcRn (mouse) (P01887 21-119 limits assumed, chain 2 of 2, further chain): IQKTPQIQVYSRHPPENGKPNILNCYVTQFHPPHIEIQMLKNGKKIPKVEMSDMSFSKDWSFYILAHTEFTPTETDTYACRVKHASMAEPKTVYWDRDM

[22] = target: biotinylated cynomolgus FcRn (cynomolgus) (UniProt Q8SPV9); test: Biacore, pH 7.4, steady state response
[23] = target: Human CD16a (FcγRIIIa V158) with C-terminal HPC4 tag (human) (UniProt P08637); test: Biacore SPR, FcγRIIIa-V158 captured, pH 7.4
[24] = target: biotinylated human FcRn (human) (UniProt P55899); test: Biacore SPR, pH 6.0; remark: listed apart in the source
rat FcRn (rat) [25] = target: rat FcRn (rat) (UniProt P13599); test: Biacore, pH 6.0
[26] = target: biotinylated human FcRn (human) (UniProt P55899); test: Biacore, biotin-captured hFcRn, pH 8.0, 1000 nM antibody
[27] = target: biotinylated human FcRn (human) (UniProt P55899); test: Biacore, biotin-captured hFcRn, pH 9.0, 1000 nM antibody
[28] = target: biotinylated human FcRn (human) (UniProt P55899); test: Biacore, biotin-captured hFcRn, pH 8.0
[29] = target: biotinylated cynomolgus FcRn (cynomolgus) (UniProt Q8SPV9); test: Biacore, biotin-captured cFcRn, pH 6.0
[30] = target: biotinylated cynomolgus FcRn (cynomolgus) (UniProt Q8SPV9); test: Biacore, biotin-captured cFcRn, pH 8.0
[31] = target: biotinylated human FcRn (human) (UniProt P55899); test: Biacore, biotin-captured hFcRn, pH 7.4, 1000 nM antibody
[32] = target: biotinylated cynomolgus FcRn (cynomolgus) (UniProt Q8SPV9); test: Biacore, biotin-captured cFcRn, pH 7.4, 1000 nM antibody
[33] = target: biotinylated cynomolgus FcRn (cynomolgus) (UniProt Q8SPV9); test: Biacore, biotin-captured cFcRn, pH 7.4
[34] = target: biotinylated cynomolgus FcRn (cynomolgus) (UniProt Q8SPV9); test: Biacore, biotin-captured cFcRn, pH 9.0, 1000 nM antibody
[35] = target: biotinylated cynomolgus FcRn (cynomolgus) (UniProt Q8SPV9); test: Biacore, biotin-captured cFcRn, pH 8.0, 1000 nM antibody
rat FcRn (rat) [36] = target: rat FcRn (rat) (UniProt P13599); test: Biacore SPR, pH 7.4, 1000 nM antibody
rat FcRn (rat) [37] = target: rat FcRn (rat) (UniProt P13599); test: Octet BLI, pH 6.0

Sequence of biotinylated human FcRn (human) (P55899 24-297 limits assumed, chain 1 of 2): as the sequence (P55899 24-297 limits assumed, chain 1 of 2) above
Sequence of biotinylated human FcRn (human) (P61769 21-119 limits assumed, chain 2 of 2, further chain): as the sequence (P61769 21-119 limits assumed, chain 2 of 2, further chain) above
Sequence of Human CD16a (FcγRIIIa residues 17-208 with C-terminal HPC4 tag and valine at position 158) (human) (P08637 17-208 F176V): as the sequence (P08637 17-208 F176V) above

mAb1 YEWF (M252Y/T256E/T307W/N434F) (antibody)
FcγRIIIa Binding Steady State RU [1]: 163 RU | Kd [2]: 13 nM | koff [2]: 0.0103 s⁻¹ | kon [2]: 810000 M⁻¹ s⁻¹

mAb1 AAA (T307A/E380A/N434A) (antibody; other documents disagree on this pair)
Steady State RU [3]: 13.9 RU | Ratio (pH 6.0/pH 7.4) [4]: 40400 | Ratio (pH 6.0/pH 7.4) [5]: 2.47e-05 | Steady State RU [6]: 13.1 RU | Steady State Binding, pH 7.4 (RU) [7]: 13.9 RU | Ka [8]: 562000 M⁻¹ | Kd [9]: 1780 nM | koff [9]: 0.144 s⁻¹ | kon [9]: 83700 M⁻¹ s⁻¹ | Steady State RU [10]: 13.9 RU | koff [11]: 0.14 s⁻¹ | kon [11]: 84000 M⁻¹ s⁻¹ | Kd [12]: 1780 nM

mAb1 YDTN (M252Y/T256D) (antibody)
FcRn affinity column elution pH [13]: 8.29 pH | Kd [14]: 1060 nM | Steady State Binding, pH 7.4 (RU) [7]: 9.7 RU | Kd (rat FcRn (rat) [15]): 5.86 nM | Kd (rat FcRn (rat) [16]): 5.9 nM | Steady State RU (rat FcRn (rat) [17]): 56 RU | Steady State RU [10]: 9.7 RU | Kd (rat FcRn (rat) [18]): 5.9 nM | Steady State RU (rat FcRn (rat) [19]): 56 RU | Steady State RU [20]: 9.7 RU

mAb2 DW (T256D/T307W) (antibody)
FcγRIIIa V158 Affinity Fold Change (fold relative to WT) [21]: 1.15 | Steady State RU (mouse FcRn (mouse)): 257 RU | Steady State RU [22]: 15 RU | Steady State RU [10]: 18 RU

mAb1 MDQN (T256D/T307Q) (antibody)
FcγRIIIa V158 affinity fold change relative to WT [23]: 0.73 fold | FcRn affinity column elution pH [13]: 7.92 pH | Kd [14]: 600 nM | Ratio (pH 6.0/pH 7.4) [4]: 403000 | Steady State Binding, pH 7.4 (RU) [7]: 10.7 RU | Ka [8]: 4.31e+06 M⁻¹ | Kd (rat FcRn (rat) [15]): 9.54 nM | koff (rat FcRn (rat) [15]): 0.00127 s⁻¹ | kon (rat FcRn (rat) [15]): 133000 M⁻¹ s⁻¹ | Kd [9]: 232 nM | koff [9]: 0.0872 s⁻¹ | kon [9]: 376000 M⁻¹ s⁻¹ | Kd (rat FcRn (rat) [16]): 9.5 nM | koff [24]: 0.087 s⁻¹ | kon [24]: 380000 M⁻¹ s⁻¹ | Steady State RU (rat FcRn (rat) [17]): 39.1 RU | Steady State RU [10]: 10.7 RU | koff (rat FcRn (rat) [25]): 0.0013 s⁻¹ | kon (rat FcRn (rat) [25]): 13000 M⁻¹ s⁻¹ | koff [11]: 0.087 s⁻¹ | kon [11]: 380000 M⁻¹ s⁻¹ | Kd (rat FcRn (rat) [18]): 9.5 nM | Kd [12]: 232 nM | Steady State RU (rat FcRn (rat) [19]): 39.1 RU | Steady State RU [20]: 10.7 RU

mAb1 YDWY (M252Y/T256D/T307W/N434Y) (antibody)
FcγRIIIa Binding Steady State RU [1]: 136 RU | Steady State RU [26]: 281 RU | Steady State RU [27]: 10.4 RU | Kd [28]: 700 nM | Kd [29]: 3.2 nM | Kd [2]: 5.2 nM | Steady State Binding, pH 7.4 (RU) [7]: 88.5 RU | Ka [8]: 2.66e+08 M⁻¹ | Kd [30]: 1500 nM | Steady State RU [31]: 166 RU | Steady State RU [32]: 178 RU | Kd [33]: 49 nM | Steady State RU [34]: 16 RU | Steady State RU [35]: 354 RU

mAb2 DQ (T256D/T307Q) (antibody)
FcγRIIIa V158 Affinity Fold Change (fold relative to WT) [21]: 1.05 | Steady State RU (mouse FcRn (mouse)): 248 RU | Steady State RU [22]: 11 RU | Steady State RU [10]: 14 RU

mAb1 T307E (antibody)
Steady State RU (rat FcRn (rat) [36]): 21.5 RU | Steady State RU [3]: 5.7 RU | FcRn affinity column elution pH [13]: 7.58 pH | Kd (rat FcRn (rat) [15]): 141 nM | koff (rat FcRn (rat) [15]): 0.00603 s⁻¹ | kon (rat FcRn (rat) [15]): 55500 M⁻¹ s⁻¹ | Kd [9]: 8130 nM | koff [9]: 0.298 s⁻¹ | kon [9]: 43700 M⁻¹ s⁻¹ | koff (rat FcRn (rat) [37]): 0.00329 s⁻¹ | koff (rat FcRn (rat) [25]): 0.006 s⁻¹ | kon (rat FcRn (rat) [25]): 56000 M⁻¹ s⁻¹ | koff [11]: 0.3 s⁻¹ | kon [11]: 44000 M⁻¹ s⁻¹ | Kd (rat FcRn (rat) [18]): 141 nM | Kd [12]: 8130 nM
